Experimental data from patent US20240132624A1 (Ablynx, published 2024).

Assays:
human FcRn/b2M [1] = biological target: T1, human FcRn/b2M (human, UniProt P61769 21-119, biotinylated); experiment: SPR pH 6.0;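 note: surface plasmon resonance kinetics at 25 °C, diluted periplasmic extracts injected over immobilized ligand surfaces, 120 s association then 600–3600 s dissociation, running buffer containing 150 mM NaCl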
T1 construct: bought recombinant biotinylated protein (ACRO FCM-H82W4 or Immunitrack ITF01); also called hFcRn; hFcRn/hb2M
Experimental: (§1) All kinetic measurements have been performed on ProteOn XPR36 (BioRad Laboratories, Inc.), MASS-2 (Sierra sensors, Gmbh) or SPR-32 (Bruker Corporation). […] The phytip purified periplasmic extracts were diluted 1:10 in running buffer (CPA+150 mM NaCl+0.005% Tw20 at pH 5.5, pH 6.0 or pH 7.4) and injected over the ligand surfaces (association: 120 s at 45 μL/min; dissociation: 600s-3600 s at 45 μL/min). Experiments were carried out at 25° C.

cyno FcRn/b2M [2] = biological target: T2, cyno FcRn/b2M (cyno, UniProt Q8SPV9 24-297; Q8SPW0 21-119, biotinylated); experiment: SPR pH 6.0;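 note: surface plasmon resonance kinetics at 25 °C, diluted periplasmic extracts injected over immobilized ligand surfaces, 120 s association then 600–3600 s dissociation, running buffer containing 150 mM NaCl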
T2 construct: bought recombinant biotinylated protein (Immunitrack ITF05 or ACRO FCM-C82W5); also called cFcRn; cFcRn/cb2M
T2 sequence (Q8SPV9 24-297 limits assumed, chain 1 of 2): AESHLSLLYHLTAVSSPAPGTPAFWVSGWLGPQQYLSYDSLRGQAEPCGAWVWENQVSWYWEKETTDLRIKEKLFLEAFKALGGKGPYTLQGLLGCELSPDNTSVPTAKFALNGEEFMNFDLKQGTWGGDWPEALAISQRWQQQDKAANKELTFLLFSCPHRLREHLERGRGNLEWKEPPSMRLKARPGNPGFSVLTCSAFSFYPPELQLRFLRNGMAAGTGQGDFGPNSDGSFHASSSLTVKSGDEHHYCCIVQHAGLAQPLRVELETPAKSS
T2 sequence (Q8SPW0 21-119 limits assumed, chain 2 of 2): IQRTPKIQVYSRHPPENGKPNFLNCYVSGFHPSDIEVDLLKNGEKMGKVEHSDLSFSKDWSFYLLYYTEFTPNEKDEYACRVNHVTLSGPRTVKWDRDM
Experimental: as §1

human FcRn/b2M [3] = biological target: T1, human FcRn/b2M; experiment: SPR pH 7.4;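 note: surface plasmon resonance kinetics, periplasmic extracts diluted 1:10 flowed over immobilized target at 25 °C, 120 s association then 600–3600 s dissociation, buffer with 150 mM NaCl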
Experimental: as §1

cyno FcRn/b2M [4] = biological target: T2, cyno FcRn/b2M; experiment: SPR pH 7.4;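 note: surface plasmon resonance kinetics, periplasmic extracts diluted 1:10 flowed over immobilized target at 25 °C, 120 s association then 600–3600 s dissociation, buffer with 150 mM NaCl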
Experimental: as §1

human FcRn/b2M [5] = biological target: T1, human FcRn/b2M; experiment: SPR off-rate; pH 7.4 vs pH 6.0;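 note: surface plasmon resonance with diluted periplasmic extracts flowed over ligand surfaces, 120 s association and 600–3600 s dissociation at 25 °C, running buffer containing 150 mM NaCl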
Experimental: as §1

cyno FcRn/b2M [6] = biological target: T2, cyno FcRn/b2M; experiment: SPR off-rate; pH 7.4 vs pH 6.0;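 note: surface plasmon resonance with diluted periplasmic extracts flowed over ligand surfaces, 120 s association and 600–3600 s dissociation at 25 °C, running buffer containing 150 mM NaCl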
Experimental: as §1

| koff (human FcRn/b2M [1]) [s⁻¹] | koff (cyno FcRn/b2M [2]) [s⁻¹] | koff (human FcRn/b2M [3]) [s⁻¹] | koff (cyno FcRn/b2M [4]) [s⁻¹] | kd ratio pH 7.4/6.0 (human FcRn/b2M [5]) | kd ratio pH 7.4/6.0 (cyno FcRn/b2M [6]) | Binder |
| --- | --- | --- | --- | --- | --- | --- |
| 0.0023 | 0.0015 | 0.13 | 0.091 | 56 | 61 | T0263018B11 S52aR (VHH, name in Kabat numbering, FLAG3-His6 tagged) VHH: EVQLVESGGGVVQPGGSLRLSCAASGFTFSSYAMYWVRQAPGKGLEWVSAISRGGGSTDYADSVKGRFTISRDNSKNTLYLQMNSLRPEDTALYYCAADTLYTSLTWYSYWGQGTLVTVSS |
| 0.0016 | 0.0012 | 0.062 | 0.059 | 39 | 49 | T0263018B11 S52aT (VHH, name in Kabat numbering, FLAG3-His6 tagged) VHH: EVQLVESGGGVVQPGGSLRLSCAASGFTFSSYAMYWVRQAPGKGLEWVSAISTGGGSTDYADSVKGRFTISRDNSKNTLYLQMNSLRPEDTALYYCAADTLYTSLTWYSYWGQGTLVTVSS |
| 0.00048 | 0.00027 | 0.018 | 0.013 | 36 | 48 | T0263018B11 S52aM (VHH, name in Kabat numbering, FLAG3-His6 tagged) VHH: EVQLVESGGGVVQPGGSLRLSCAASGFTFSSYAMYWVRQAPGKGLEWVSAISMGGGSTDYADSVKGRFTISRDNSKNTLYLQMNSLRPEDTALYYCAADTLYTSLTWYSYWGQGTLVTVSS |
| 0.0027 | 0.0021 | 0.081 | 0.095 | 30 | 45 | T0263018B11 S52aV (VHH, name in Kabat numbering, FLAG3-His6 tagged) VHH: EVQLVESGGGVVQPGGSLRLSCAASGFTFSSYAMYWVRQAPGKGLEWVSAISVGGGSTDYADSVKGRFTISRDNSKNTLYLQMNSLRPEDTALYYCAADTLYTSLTWYSYWGQGTLVTVSS |
| 0.00087 | 0.00077 | 0.036 | 0.039 | 41 | 51 | T0263018B11 S52aE (VHH, name in Kabat numbering, FLAG3-His6 tagged) VHH: EVQLVESGGGVVQPGGSLRLSCAASGFTFSSYAMYWVRQAPGKGLEWVSAISEGGGSTDYADSVKGRFTISRDNSKNTLYLQMNSLRPEDTALYYCAADTLYTSLTWYSYWGQGTLVTVSS |
| 0.0015 | 0.0008 | 0.062 | 0.043 | 41 | 54 | T0263018B11 S52aW (VHH, name in Kabat numbering, FLAG3-His6 tagged) VHH: EVQLVESGGGVVQPGGSLRLSCAASGFTFSSYAMYWVRQAPGKGLEWVSAISWGGGSTDYADSVKGRFTISRDNSKNTLYLQMNSLRPEDTALYYCAADTLYTSLTWYSYWGQGTLVTVSS |
| 0.0012 | 0.00079 | 0.063 | 0.047 | 51 | 60 | T0263018B11 S52aN (VHH, name in Kabat numbering, FLAG3-His6 tagged) VHH: EVQLVESGGGVVQPGGSLRLSCAASGFTFSSYAMYWVRQAPGKGLEWVSAISNGGGSTDYADSVKGRFTISRDNSKNTLYLQMNSLRPEDTALYYCAADTLYTSLTWYSYWGQGTLVTVSS |
| 0.00054 | 0.0003 | 0.029 | 0.021 | 53 | 71 | T0263018B11 S52aP (VHH, name in Kabat numbering, FLAG3-His6 tagged) VHH: EVQLVESGGGVVQPGGSLRLSCAASGFTFSSYAMYWVRQAPGKGLEWVSAISPGGGSTDYADSVKGRFTISRDNSKNTLYLQMNSLRPEDTALYYCAADTLYTSLTWYSYWGQGTLVTVSS |
| 0.00088 | 0.0006 | 0.034 | 0.031 | 39 | 51 | T0263018B11 S52aG (VHH, name in Kabat numbering, FLAG3-His6 tagged) VHH: EVQLVESGGGVVQPGGSLRLSCAASGFTFSSYAMYWVRQAPGKGLEWVSAISGGGGSTDYADSVKGRFTISRDNSKNTLYLQMNSLRPEDTALYYCAADTLYTSLTWYSYWGQGTLVTVSS |
| 0.00068 | 0.00043 | 0.029 | 0.022 | 43 | 51 | T0263018B11 S52aA (VHH, name in Kabat numbering, FLAG3-His6 tagged) VHH: EVQLVESGGGVVQPGGSLRLSCAASGFTFSSYAMYWVRQAPGKGLEWVSAISAGGGSTDYADSVKGRFTISRDNSKNTLYLQMNSLRPEDTALYYCAADTLYTSLTWYSYWGQGTLVTVSS |

Second part, the binder before the results:

| Binder | koff (human FcRn/b2M [1]) [s⁻¹] | koff (cyno FcRn/b2M [2]) [s⁻¹] | koff (human FcRn/b2M [3]) [s⁻¹] | koff (cyno FcRn/b2M [4]) [s⁻¹] | kd ratio pH 7.4/6.0 (human FcRn/b2M [5]) | kd ratio pH 7.4/6.0 (cyno FcRn/b2M [6]) |
| --- | --- | --- | --- | --- | --- | --- |
| T0263018B11 S31Q (VHH, name in Kabat numbering, FLAG3-His6 tagged) VHH: EVQLVESGGGVVQPGGSLRLSCAASGFTFSQYAMYWVRQAPGKGLEWVSAISSGGGSTDYADSVKGRFTISRDNSKNTLYLQMNSLRPEDTALYYCAADTLYTSLTWYSYWGQGTLVTVSS | 0.00038 | 0.00016 | 0.017 | 0.013 | 43 | 79 |
| T0263018B11 S52E (VHH, name in Kabat numbering, FLAG3-His6 tagged) VHH: EVQLVESGGGVVQPGGSLRLSCAASGFTFSSYAMYWVRQAPGKGLEWVSAIESGGGSTDYADSVKGRFTISRDNSKNTLYLQMNSLRPEDTALYYCAADTLYTSLTWYSYWGQGTLVTVSS | 0.0026 | 0.0023 | 0.042 | 0.047 | 16 | 20 |
| T0263018B11 S52T (VHH, name in Kabat numbering, FLAG3-His6 tagged) VHH: EVQLVESGGGVVQPGGSLRLSCAASGFTFSSYAMYWVRQAPGKGLEWVSAITSGGGSTDYADSVKGRFTISRDNSKNTLYLQMNSLRPEDTALYYCAADTLYTSLTWYSYWGQGTLVTVSS | 0.0019 | 0.0017 | 0.045 | 0.042 | 24 | 25 |
| T0263018B11 S52H (VHH, name in Kabat numbering, FLAG3-His6 tagged) VHH: EVQLVESGGGVVQPGGSLRLSCAASGFTFSSYAMYWVRQAPGKGLEWVSAIHSGGGSTDYADSVKGRFTISRDNSKNTLYLQMNSLRPEDTALYYCAADTLYTSLTWYSYWGQGTLVTVSS | 0.0032 | 0.0022 | 0.15 | 0.11 | 46 | 48 |
| T0263018B11 S31T (VHH, name in Kabat numbering, FLAG3-His6 tagged) VHH: EVQLVESGGGVVQPGGSLRLSCAASGFTFSTYAMYWVRQAPGKGLEWVSAISSGGGSTDYADSVKGRFTISRDNSKNTLYLQMNSLRPEDTALYYCAADTLYTSLTWYSYWGQGTLVTVSS | 0.00052 | 0.0003 | 0.024 | 0.018 | 46 | 60 |
| T0263018B11 S52G (VHH, name in Kabat numbering, FLAG3-His6 tagged) VHH: EVQLVESGGGVVQPGGSLRLSCAASGFTFSSYAMYWVRQAPGKGLEWVSAIGSGGGSTDYADSVKGRFTISRDNSKNTLYLQMNSLRPEDTALYYCAADTLYTSLTWYSYWGQGTLVTVSS | 0.00039 | 0.0004 | 0.012 | 0.011 | 32 | 27 |
| T0263018B11 S52D (VHH, name in Kabat numbering, FLAG3-His6 tagged) VHH: EVQLVESGGGVVQPGGSLRLSCAASGFTFSSYAMYWVRQAPGKGLEWVSAIDSGGGSTDYADSVKGRFTISRDNSKNTLYLQMNSLRPEDTALYYCAADTLYTSLTWYSYWGQGTLVTVSS | 0.0044 | 0.0031 | 0.14 | 0.19 | 32 | 61 |
| T0263018B11 S52Q (VHH, name in Kabat numbering, FLAG3-His6 tagged) VHH: EVQLVESGGGVVQPGGSLRLSCAASGFTFSSYAMYWVRQAPGKGLEWVSAIQSGGGSTDYADSVKGRFTISRDNSKNTLYLQMNSLRPEDTALYYCAADTLYTSLTWYSYWGQGTLVTVSS | 0.0067 | 0.0055 | 0.15 | 0.14 | 22 | 26 |
| T0263018B11 S52V (VHH, name in Kabat numbering, FLAG3-His6 tagged) VHH: EVQLVESGGGVVQPGGSLRLSCAASGFTFSSYAMYWVRQAPGKGLEWVSAIVSGGGSTDYADSVKGRFTISRDNSKNTLYLQMNSLRPEDTALYYCAADTLYTSLTWYSYWGQGTLVTVSS | 0.0024 | 0.0025 | 0.058 | 0.064 | 24 | 25 |
| T0263018B11 S52R (VHH, name in Kabat numbering, FLAG3-His6 tagged) VHH: EVQLVESGGGVVQPGGSLRLSCAASGFTFSSYAMYWVRQAPGKGLEWVSAIRSGGGSTDYADSVKGRFTISRDNSKNTLYLQMNSLRPEDTALYYCAADTLYTSLTWYSYWGQGTLVTVSS | 0.023 | 0.016 | 0.44 | 0.38 | 20 | 24 |
| T0263018B11 S52P (VHH, name in Kabat numbering, FLAG3-His6 tagged) VHH: EVQLVESGGGVVQPGGSLRLSCAASGFTFSSYAMYWVRQAPGKGLEWVSAIPSGGGSTDYADSVKGRFTISRDNSKNTLYLQMNSLRPEDTALYYCAADTLYTSLTWYSYWGQGTLVTVSS | 0.0011 | 0.0013 | 0.03 | 0.048 | 27 | 37 |
